Residue numbers refer to the chain shown, from its start. Numbers in names are those of the source. Like-named read-outs stand apart in the source and are kept apart here.
Tests used:
[1] = target: T1, streptavidin beads (M-280 beads) (UniProt P22629 37-163, limits assumed); experiment: radioactive equilibrium binding assay
T1 construct: Capture beads used as negative control

human β-NGF [2] = target: T2, human β-NGF (human, UniProt P01138 122-241, biotinylated (site not stated)); experiment: radioactive equilibrium binding assay
T2 construct: also called biotinylated human β-NGF; nerve growth factor
T2 sequence (P01138 122-241 limits assumed): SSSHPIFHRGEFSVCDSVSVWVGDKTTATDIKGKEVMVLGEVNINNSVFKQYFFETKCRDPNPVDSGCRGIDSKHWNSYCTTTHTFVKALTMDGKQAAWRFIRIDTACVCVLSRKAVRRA

human β-NGF [3] = target: T2, human β-NGF; experiment: radioactive equilibrium binding assay; remark: listed apart in the source
Method: (§1) Affinities of selected F13β2 binders to biotinylated myostatin were determined in radioactive equilibrium binding assay (FIGS. 11A and 11B; Table 3). ³⁵S-labeled binder proteins from selection pools and single clones were produced in vitro in a rabbit reticulocyte lysate translation kit (Ambion) and purified on M2-agarose (Sigma). Varying concentrations of biotinylated human myostatin (0-100 nM) or other proteins (protein 1: 100 nM; peptide 1: 250 nM; protein 2: 50 nM) were incubated with a constant concentration of the purified binder protein (1 or 2 nM) at 30° C. for 30 min in buffer B (1×PBS, 0.02% Triton X-100 [pH 7.4]). The receptor-binder complexes were captured by using 25 μl of M280 or Protein A (Dynal) (protein 2) magnetic beads for 10 min at room temperature on a Kingfisher instrument (Thermo Fisher Scientific). The beads were washed five times with 100 μl buffer B, and the amount of ³⁵S-methionine remained on the beads was measured by scintillation counting. Data were analyzed by using the GraphPad Prism software (GraphPad Software, Inc., San Diego, Calif.), fitted with a one-site, nonlinear binding equation. For inhibition assay the binding of ³⁵S-labeled proteins to 20 or 25 nM of biotinylated human myostatin was performed in the presence of varying concentrations of inhibitor (human activin receptor IIB/Fc chimera (R&D Systems, Minneapolis, Minn.) (0-250 nM); protein 1 (100 nM), peptide 1 (250 nM), protein 2 (50 nM); proteins, produced in E. coli, M17, M7, M29, M21, M1-1, WT F13β2 (500 nM)).
Selected F13β2 binders were tested for binding to biotinylated β-NGF in radioactive equilibrium binding assay (FIGS. 21A and 21B; Table 4) according to the procedure described for myostatin binders. NGF at concentrations up to 100 nM was incubated with a constant concentration of the purified binder protein (1 or 2 nM) at 30° C. for 1 hour. Affinities to human β-NGF differed greatly between various binders.

chicken lysozyme = chicken lysozyme (chicken, UniProt P00698 19-147); experiment: phage ELISA on target-coated Maxisorp wells, anti-M13 pVIII-HRP
Chain of chicken lysozyme (P00698 19-147 limits assumed): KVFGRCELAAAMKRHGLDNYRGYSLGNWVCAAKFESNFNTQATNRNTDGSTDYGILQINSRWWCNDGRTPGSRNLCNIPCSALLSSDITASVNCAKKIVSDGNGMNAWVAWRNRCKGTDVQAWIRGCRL
Method: (§2) An Elisa screening was performed after four rounds of selection to identify binding clones. Randomly picked phagemid clones were incubated with target-coated or buffer-coated Maxisorp wells at room temperature for 1 hour. Unbound phage was removed and the wells were washed eight times with PBS pH 7.4, 0.05% Tween-20. Binding was determined with an anti-M13 pVIII antibody-HRP conjugate (GE). […] Varying levels of binding to targets and the Maxisorp surface were also observed in other clones.

human myostatin [4] = target: T3, human myostatin (human, UniProt O14793 267-375, biotinylated in selections and radioactive assays (site not stated)); experiment: radioactive equilibrium binding assay
T3 construct: Phage ELISA used both unbiotinylated and biotinylated myostatin; also called biotinylated human myostatin; myostatin-biotin
T3 sequence (looked up): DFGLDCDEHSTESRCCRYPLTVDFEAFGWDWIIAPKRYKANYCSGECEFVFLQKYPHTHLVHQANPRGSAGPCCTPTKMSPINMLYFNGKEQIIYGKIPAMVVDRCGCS
Method: as §1

human myostatin [5] = target: T3, human myostatin; experiment: cell-based or functional assay
FcεRI-MBP = target: T4, FcεRI-MBP (UniProt P12319 26-205); experiment: phage ELISA on target-coated Maxisorp wells, anti-M13 pVIII-HRP
T4 construct: Produced in E. coli; order of the two parts is printed both ways (mbp-FcεRI, FcεRI-MBP); also called mbp-FcεRI; mbpFcεRI
T4 sequence (looked up): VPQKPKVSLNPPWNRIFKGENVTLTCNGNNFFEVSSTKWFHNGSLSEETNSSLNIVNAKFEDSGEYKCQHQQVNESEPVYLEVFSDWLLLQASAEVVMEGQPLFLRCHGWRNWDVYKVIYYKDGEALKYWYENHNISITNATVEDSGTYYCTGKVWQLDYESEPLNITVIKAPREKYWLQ
Method: as §2

human myostatin [6] = target: T3, human myostatin; experiment: radioactive equilibrium binding assay; remark: listed apart in the source

T1 sequence (P22629 37-163 limits assumed): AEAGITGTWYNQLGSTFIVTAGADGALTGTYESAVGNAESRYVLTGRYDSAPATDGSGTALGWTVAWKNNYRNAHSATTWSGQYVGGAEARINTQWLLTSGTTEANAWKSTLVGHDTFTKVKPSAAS

B1: 61362-F2 (designed binder)
chain: MTIPEIIIKVRGTQVVGSDMTVIVEFINTSNETLPSVWVHLDGPGVTRPMKKMFPEIPPNSSVQWEAWVSGHRKLIASMIRDSSRHVYGELDVQIQRRDYKDDDDK
notes: group N2; Δ67-70, P71A
Q: What does the source list for B1?
A: binding result [1]: no binding; Kd (human β-NGF [2]): < 100 nM; B max (human β-NGF [3]): 35.4%; Kd (human β-NGF [3]): 62 nM

B2: FG6 phage clone ANPIKHM / RPTAG / LGVLRR (designed binder)
chain: TIPEIIIKVRGTQVVGSDMTVIVEFANPIKHMLRNVWVHLDGPGVTRPMKKMFREIRPTAGVQWEEVVRPWVSGHRKLIASMSLGVLRRVYGELDVQIQRR
notes: not shown: 6-his, myc tag and C-terminal domain of M13 pIII (phage display fusion)
Q: With B2 as the binder, how does the “Target Binding” value (chicken lysozyme) read?
A: 2.83

B3: FG6 phage clone RRPTKGN / GPGQV / LGMLRR (designed binder)
chain: B2 chain with A26R, N27R, I29T, H31G, M32N, R57G, T59G, A60Q, G61V, V86M
notes: as for B2
Q: With B3 as the binder, how does the “Target Binding” value (chicken lysozyme) read?
A: 2.45

B4: 61363-C12 (G45E) (designed binder)
chain: MTIPEIIIKVRGTQVVGSDMTVIVEFTNPLEENLYNVWVHLDGPEVTRPMKKMFYQISTNIPVQWEEVVRPWVSGHRKLIASMGAHTKDHVYGELDVQIQRRDYKDDDDK
notes: group N4; G45E
Q: Does B4 bind [1]?
A: no binding

Q: What about the Kd (human β-NGF [2]) of the same binder?
A: < 100 nM

Q: And the B max (human β-NGF [3])?
A: 33.6%

Q: What about the Kd (human β-NGF [3]) of the same binder?
A: 36 nM

B5: FG6 phage clone INPLQVS / GPSSA / IYRYGL (designed binder)
chain: TIPEIIIKVRGTQVVGSDMTVIVEFINPLQVSLRNVWVHLDGPGVTRPMKKMFREIGPSSAVQWEEVVRPWVSGHRKLIASMSIYRYGLVYGELDVQIQRR
notes: as for B2
Q: With B5 as the binder, how does the “Target Binding” value (chicken lysozyme) read?
A: 4

B6: 39633-D5 (designed binder)
chain: MTIPEIIIKVRGTQVVGSDMTVIVEFTNPFKETLRSVWVHLDGPGVTRPMKKMFREIPPKTTVQWEEVVRPWVSGHRKLIASMCEPSLDHVYGELDVQIQRRDYKDDDDK
notes: group M4-A50; also called 39633-D5/yes
Q: What does the source list for B6?
A: B max (human myostatin [4]): 6.91%; Kd (human myostatin [4]): 8.69 nM

B7: 39908-F8 (K52R) (designed binder)
chain: B6 chain with K52R, K60E, C84R, E85T, P86Q, S87Y, D89I, V91L
notes: group M1-A50; V91L, K52R
Q: With B7 as the binder, how does the B max (human myostatin [4]) read?
A: 45.7%

Q: What about the Kd (human myostatin [4]) of the same binder?
A: 36.6 nM

B8: FG6 phage clone TIPHRGR / QPNVP / RAFLRH (designed binder)
chain: TIPEIIIKVRGTQVVGSDMTVIVEFTIPHRGRLRNVWVHLDGPGVTRPMKKMFREIQPNVPVQWEEVVRPWVSGHRKLIASMSRAFLRHVYGELDVQIQRR
notes: as for B2
Q: B8 was tested. Which “Target Binding” value (chicken lysozyme) did it give?
A: 0.34

B9: M1-1, E. coli-produced (designed binder)
chain: MTIPEIIIKVRGTQVVGSDMTVIVEFTNPLKETLRNVWVHLDGPGVTRPMKKMFPAIPMNHKVQWEEVVRPWVSGHRKLIASMPQLFHIHVYGELDVQIQRRHHHHHH
Q: B9 was tested. Which “EC50 (read off the curve); blocking of myostatin-induced inhibition of MPC-11 proliferation” value (human myostatin [5]) did it give?
A: ~20 nM

B10: FG6+6 phage clone MNPRMEM / HPDSD / RLWTLWMARWRW (designed binder)
chain: TIPEIIIKVRGTQVVGSDMTVIVEFMNPRMEMLRNVWVHLDGPGVTRPMKKMFREIHPDSDVQWEEVVRPWVSGHRKLIASMSRLWTLWMARWRWVYGELDVQIQRR
notes: as for B2
Q: For B10, which “Target Binding” value (FcεRI-MBP) is on record?
A: 2.35

B11: 61362-C6 (designed binder)
chain: MTIPEIIIKVRGTQVVGSDMTVIVEFTNPLNEPLLFVWVHLDGPGVTRPMKKMFRIISPHATVQWEEVVRPWVSGHRKLIASMSIGFQAHVYGELDVQIQRRDYKDDDDK
notes: group N1
Q: Does B11 bind [1]?
A: no binding

Q: And the B max (human β-NGF [3])?
A: 5.5%

Q: And the Kd (human β-NGF [3])?
A: 24 nM

B12: FG6 phage clone PSPFIEN / RPECI / RGWLRS (designed binder)
chain: TIPEIIIKVRGTQVVGSDMTVIVEFPSPFIENLRNVWVHLDGPGVTRPMKKMFREIRPECIVQWEEVVRPWVSGHRKLIASMSRGWLRSVYGELDVQIQRR
notes: as for B2
Q: With B12 as the binder, how does the “Target Binding” value (chicken lysozyme) read?
A: 1.19

B13: FG6+6 phage clone TNPLRGT / PPNVK / GLSTAGRWKRVR (designed binder)
chain: TIPEIIIKVRGTQVVGSDMTVIVEFTNPLRGTLRNVWVHLDGPGVTRPMKKMFREIPPNVKVQWEEVVRPWVSGHRKLIASMSGLSTAGRWKRVRVYGELDVQIQRR
notes: as for B2
Q: B13 was tested. Which “Target Binding” value (FcεRI-MBP) did it give?
A: 4

B14: FG6+6 phage clone TNPRRRV / RPRST / WNSRWPAPTRRR (designed binder)
chain: TIPEIIIKVRGTQVVGSDMTVIVEFTNPRRRVLRNVWVHLDGPGVTRPMKKMFREIRPRSTVQWEEVVRPWVSGHRKLIASMSWNSRWPAPTRRRVYGELDVQIQRR
notes: as for B2
Q: How did the “Target Binding” value (FcεRI-MBP) turn out when B14 was run?
A: 1.73

B15: 61363-H1 (V15A) (designed binder)
chain: MTIPEIIIKVRGTQAVGSDMTVIVEFTNPLKETLYNVWVHLDGPGVTRPMKKMFWEIRTNHPVQWEEVVRPWVSGHRKLIASMSSNSRDHVYGELDVQIQRRDYKDDDDK
notes: group N4; V15A
Q: Which results are given for B15?
A: binding result [1]: no binding; Kd (human β-NGF [2]): < 100 nM; B max (human β-NGF [3]): 8.4%; Kd (human β-NGF [3]): 22.9 nM

B16: 45927-B3 (designed binder)
chain: MTIPEIIIKVRGTQVVGSDMTVIVEFTNPLKETLRNVWVHLDGPGVTRPMKKMFLKIPGCSTVQWEEVVRPWVSGHRKLIASMSMLGLPFSLRFIPVYGELDVQIQRRDYKDDDDK
notes: group M1-Aext; extended FG loop; also called Mext (clone ID)
Q: What does the source list for B16?
A: Kd (human myostatin [6]): 53 to 86 nM; B max (human myostatin [4]): 50.7%; Kd (human myostatin [4]): 86.7 nM

B17: 45927-A3 (designed binder)
chain: B16 chain with P58L
notes: group M1-Aext
Q: Which results are given for B17?
A: Kd (human myostatin [6]): 53 to 86 nM; B max (human myostatin [4]): 36.4%; Kd (human myostatin [4]): 53.2 nM

B18: 61362-B8 (I23L) (designed binder)
chain: MTIPEIIIKVRGTQVVGSDMTVLVEFTIPLQDILNVWVHLDGPGVTRPMKKMFFSIRMTPAVQWEEVVRPWVSGHRKLIASMSFHTHRHVYGELDVQIQRRDYKDDDDK
notes: group N4; I23L
Q: Which results are given for B18?
A: binding result [1]: no binding; Kd (human β-NGF [2]): < 100 nM; B max (human β-NGF [3]): 2.1%; Kd (human β-NGF [3]): 3.8 nM

B19: FG6+6 phage clone GNPTKET / RPRSM / YRPRRGGMRLRH (designed binder)
chain: TIPEIIIKVRGTQVVGSDMTVIVEFGNPTKETLRNVWVHLDGPGVTRPMKKMFREIRPRSMVQWEEVVRPWVSGHRKLIASMSYRPRRGGMRLRHVYGELDVQIQRR
notes: as for B2
Q: Which “Target Binding” value (FcεRI-MBP) does the source give for B19 here?
A: 4

B20: FG6+6 phage clone SNPLSRP / RPHSN / SRSLWLSIGKRH (designed binder)
chain: TIPEIIIKVRGTQVVGSDMTVIVEFSNPLSRPLRNVWVHLDGPGVTRPMKKMFREIRPHSNVQWEEVVRPWVSGHRKLIASMSSRSLWLSIGKRHVYGELDVQIQRR
notes: as for B2
Q: With B20 as the binder, how does the “Target Binding” value (FcεRI-MBP) read?
A: 3.31

B21: 61363-C1 (G17D) (designed binder)
chain: MTIPEIIIKVRGTQVVDSDMTVIVEFTDTVLEILRTVWVHLDGPGVTRPMKKMFPHIRPKVTVQWEEVVRPWVSGHRKLIASMLIASLRHVYGELDVQIQRRDYKDDDDK
notes: group N3; G17D
Q: Does B21 bind [1]?
A: no binding

Q: What about the B max (human β-NGF [3]) of the same binder?
A: 1.8%

Q: And the Kd (human β-NGF [3])?
A: 2.8 nM
